# Data taken from the RNAGym collection of RNA variant scans (doi:10.7554/elife.80360).
# B1: CPEB3 Ribozyme (parent)
# chain: GGGGGCCACAGCAGAAGCGUUCACGUCGCGGCCCCUGUCAGAUUCUGGUGAAUCUGCGAAUUCUGCUGU
# Variants of: B1
# Assay: self-cleavage, relative activity (ratio to wild type); higher = more cleavage; co-transcriptional
row,Variant,self-cleavage
1,G19U U38A,0.227
2,G19U U38G,0.201
3,G19C G31U,0.217
4,G19C G31A,0.132
5,G19C G31C,0.153
6,C18U U44A,0.727
7,C18U U44G,0.726
8,C18U U44C,0.617
9,C18U U55C,0.446
10,C18U U55A,0.447
11,G19A U55A,0.185
12,G19A U55C,0.218
13,G19A U55G,0.099
14,G19A A23C,0.25
15,G19A A23G,0.131
16,G19A A23U,0.154
17,G19U C54U,0.625
18,G19U C54A,0.182
19,G19U C54G,0.317
20,G19U A60U,0.168
21,G19U A60G,0.289
22,G19A G25A,0.0763
23,G19A G25U,0.164
24,G19A G25C,0.151

row,Variant,self-cleavage
1,G19A C22G,0.148
2,G19A C22U,0.196
3,G19U C27G,0.82
4,G19U C27A,0.947
5,G19C U62G,0.162
6,G19C A51C,0.122
7,G19A U67G,0.205
8,G19A U67C,0.177
9,G19U C45U,0.469
10,G19U C45G,0.4
11,G19U C66A,0.271
12,G19U C66G,0.27
13,G19C C54G,0.163
14,G19C C54A,0.158
15,G19C C54U,0.113
16,G19C A60C,0.15
17,G19C,0.154
18,G19A,0.167
19,G19U,0.644
20,G19C C32U,0.198
21,G19C C32A,0.146
22,G19A G41U,0.142
23,G19A G41C,0.187
24,G19A G41A,0.153

row,Variant,self-cleavage
1,G19C G25C,0.141
2,G19C U38G,0.185
3,G19A U43G,0.245
4,G19A C24A,0.124
5,G19A C24G,0.159
6,G19A C24U,0.16
7,G19C G58C,0.12
8,G19C G58U,0.19
9,G19C G37C,0.183
10,G19C G37U,0.143
11,G19C G37A,0.225
12,C18U U67A,0.862
13,C18U U67C,0.802
14,G19U U36G,0.222
15,G19A C33U,0.13
16,G19A C33A,0.126
17,C18U U53C,0.47
18,C18U U43G,0.357
19,C18U U43C,0.768
20,G19A C63G,0.152
21,G19A C63A,0.0882
22,G19A C35G,0.183
23,G19A G65A,0.0987
24,G19A G65U,0.159

row,Variant,self-cleavage
1,G19A G65C,0.127
2,G19U C39A,0.188
3,G19U C39G,0.264
4,G19U C39U,0.22
5,G19A C57G,0.137
6,G19A C57U,0.178
7,G19A C57A,0.133
8,G19C C35G,0.149
9,G19C C35A,0.154
10,G19C C34U,0.209
11,G19C C34G,0.115
12,G19C C34A,0.196
13,G19C C29A,0.164
14,G19C C29G,0.1
15,G19U A52C,0.432
16,G19U A52U,0.474
17,G19U A52G,0.589
18,C18U U62C,0.572
19,C18U U62A,0.402
20,G19A U62A,0.204
21,G19A U62G,0.169
22,G19A G31C,0.143
23,G19A G31U,0.146
24,G19C U21A,0.109

row,Variant,self-cleavage
1,G19C U21C,0.142
2,G19U G68C,0.791
3,G19U G68U,0.738
4,G19C A23C,0.181
5,G19C A23U,0.119
6,G19U C63A,0.179
7,G19U A40U,0.237
8,G19U A40G,0.332
9,G19U A40C,0.189
10,G19C C66A,0.114
11,G19C C66U,0.105
12,G19C C66G,0.172
13,G19C U36C,0.0775
14,G19C U36A,0.188
15,G19C U36G,0.141
16,G19C U55G,0.172
17,G19C U55C,0.163
18,G19C U55A,0.132
19,G19U U44G,0.398
20,G19U U44A,0.354
21,G19C C33G,0.142
22,G19C C33U,0.181
23,C18U U64G,0.43
24,G19C C27U,0.116

row,Variant,self-cleavage
1,G19C C27G,0.961
2,G19A G58U,0.194
3,G19A G58C,0.168
4,G19A C32A,0.174
5,G19A A60U,0.0747
6,G19A A60C,0.0899
7,G19U A23U,0.494
8,G19U A23C,0.333
9,G19C G28U,0.142
10,G19C G28C,0.131
11,G19C G28A,0.147
12,G19C U53A,0.224
13,G19C U53G,0.158
14,G19C U61G,0.116
15,G19C U61C,0.161
16,G19C U26G,0.109
17,G19C U26C,0.153
18,G19C U26A,0.13
19,G19U A51U,0.476
20,G19U A51G,0.538
21,G19U G37U,0.199
22,G19U G37C,0.175
23,G19U G37A,0.19
24,G19U U62G,0.251

row,Variant,self-cleavage
1,G19U U62A,0.244
2,G19U U62C,0.256
3,G19C A52C,0.195
4,G19C A52G,0.134
5,G19C A52U,0.189
6,G19U G41U,0.157
7,G19U G41A,0.181
8,G19U G41C,0.16
9,G19A U61A,0.16
10,G19A U61C,0.164
11,G19A U20G,0.111
12,G19A G56A,0.104
13,G19A G56C,0.0715
14,G19U U67C,0.461
15,G19U U67G,0.546
16,G19U U67A,0.479
17,G19C C45A,0.178
18,G19C C45G,0.119
19,G19C C45U,0.154
20,G19U U61C,0.194
21,G19U U61G,0.262
22,G19U U61A,0.217
23,G19C U43A,0.127
